Test results published in the supplement of paper PMC9170038.

Tested on: K4 kissing-loop RNA reporter
Test: apparent KD of K4 kissing-loop reporter; higher = weaker reporter binding
Conditions: Eterna round: R107; input ligand: none
Procedure: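 RNA-MaP round R107: designed RNA switches with theophylline, tryptophan, arginine or FMN aptamers are transcribed on-chip within common flanks. They are titrated with a labelled K4 kissing-loop RNA reporter in RNA-MaP buffer (100 mM Tris pH 7.5, 80 mM KCl, 4 mM MgCl2), without ligand or with the indicated ligand. Median apparent KD per design.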
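Further: bound reporter read as fluorescence of individual clusters on recovered sequencing chips by microscopy, with normalized cluster intensities fitted with a binding model.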

| Sequence | apparent KD of K4 kissing-loop reporter |
| --- | --- |
| UAUAUAGUGACGGCCGCCACUAUUGUGAUGUUGUUGUUAGAGUGAUGUUUUGUUGUUUGAUUUUGUAGGACCGGGUUAUAUGUUA [ffdfzmullin] | 615 nM |
| GCGCAUGUUAAAGGAUAUAGCAGGUGAUACAAGAAAGUGAGUGAUGUUUAUGUAGAUGAUGAUAUGUUAGAAGGUUAACAAAAGC [abcdefghijklmn] | 674 nM |
| AGAGUUAUAUGAGGAUAUGAGAUAGUUAAUGAGUGAGUUAUAGUGUAGUUUGUUUAGUGAUGUUAUUUAGAAGGCGUGAGUGAUG [ljjlumullin] | 122 nM |
| GUAUCGCUAGGAGGAUAUUUCAAAUAACAAAUAAAUGGUUAUACGGAGUGAUGUUCCGAUUUACGGAAAGAAGGCCUAGUGAUAC [FMN B 4] | 210 nM |
| UGUGAUGUGUAGUGUUAUGUUUUGAGGGAUACCAGAGUCUUUUUAUUCCCUUGGCAGCUUGAGUGAUGUUUGAUGCUGUUGUUGU [dvccmullin] | 412 nM |
| UUUAUAUUGUCGGCCGCCACUGGAUUAAUAUUUGUAUAAUCUAGUUCAAAGUGAUGUUUUGAGUCCAGGACCGGGACAUUUGUUA [JR_ExcTryptoB_Sub004] | 536 nM |
| GAUAAUUACGUAGGAUAUCCAUAUCCGCGGUCUUGAUGGAUUUUUACGAUCCAGUGAUGUUGGAUUGGAGAAGGACGGAGGCAAA [Arquedis] | 403 nM |
| CGCCAGUGAUGUUGGCGCAGGUUGCGGGAAGGAGCGCGCGUAAGCGCAGGUAGGUCGCCUGCAGGCCAGUGAUGUUGGCAAUCUG [Same State Arginine A GF 30] | 143 nM |
| GUCUCAAAAGAGGCAAGCACUCACGAGGACAAGGAUAUCAUUUCAAUGAGAAGGUGUCCUCGUCCUCAGUGAUGUUGAGGAGUGC [Omei KL FMN A SS E 1] | 259 nM |
| CAUAGGAAACUAUGUAUCUCUCUGACUGAAGGAGCGCGUGAAAACGCAGGUAGGUCGCAGAAUUUAACAGAGAGUGAUGUUCUCU [Ex Arginine A K4 9] | 319 nM |

Same assay, conditions: Eterna round: R107; input ligand: theophylline 20 uM

| Sequence | apparent KD of K4 kissing-loop reporter |
| --- | --- |
| UGGAGUUGACGAAAAGUCAACUCCUGAGAUACCAGUGACGAAGGUCACCCUUGGCAGCUCACUGCCAGUGAUGUUGGAAGAUAAA [whbob_SS_Theo_A_w47] | 396 nM |
| GGAUCCUAGGCGGCCGCCACUCCAUCGUACCGAAAGGUAUGAUACCGAGUGAUGUUCGGUUGGAGGAGGACCGGGCCUAGGAUCC [#2 Exclusion - Tryptophan B Attempt #3 (HarryS)] | 127 nM |
| GCCGUACGCAUGGAUACCAGCACACAACGAAGUGAUGUUUCGUGCGUAGAUUUGUGCUACUGCCCUUGGCAGCCAUGCGUACGGC | 69.3 nM |
| UGAUAGGACAGAAGGAGCGGGAGUGAUGUUCCCAAAAGAAUAAGGUGUCAAAAGACACCCUUCCAGGUAGGUCGCUGUCCUAUCU | 119 nM |
| AAAGCUUGGAUGGACGUUAGCGACGGAGAAGGAGCGCACGGAAGUGCAGGUAGGUCGCUCCGAGUGAUGUUCGUGAGUGAUUGCU [Ditienti] | 252 nM |
| UUACUACCCAGUGAUGUUGGGUAGCGGCGGCGAGGACCGGUACGGCCGCCACUCGGCGCACGGGAGUGAUGUUCCUGGGAAUAUA [Same State Tryptophan A GF 10] | 709 nM |
| UGGACGUUAUACAAAUAGUAUAACUGGGAUACCAGUGACGAAAGUCACCCUUGGCAGCUCAACUGCCAGUGAUGUUGGUAGUCCA [Astros-Eli-mod#4] | 239 nM |
| UAUAUAGUGACGGCCGCCACUAUUGUGAUGUUGUUGUUAGAGUGAUGUUUUGUUGUUUGAUUUUGUAGGACCGGGUUAUAUGUUA [ffdfzmullin] | 567 nM |
| GCGCAUGUUAAAGGAUAUAGCAGGUGAUACAAGAAAGUGAGUGAUGUUUAUGUAGAUGAUGAUAUGUUAGAAGGUUAACAAAAGC [abcdefghijklmn] | 691 nM |
| AGAGUUAUAUGAGGAUAUGAGAUAGUUAAUGAGUGAGUUAUAGUGUAGUUUGUUUAGUGAUGUUAUUUAGAAGGCGUGAGUGAUG [ljjlumullin] | 133 nM |
| GUAUCGCUAGGAGGAUAUUUCAAAUAACAAAUAAAUGGUUAUACGGAGUGAUGUUCCGAUUUACGGAAAGAAGGCCUAGUGAUAC [FMN B 4] | 218 nM |
| UGUGAUGUGUAGUGUUAUGUUUUGAGGGAUACCAGAGUCUUUUUAUUCCCUUGGCAGCUUGAGUGAUGUUUGAUGCUGUUGUUGU [dvccmullin] | 431 nM |
| UUUAUAUUGUCGGCCGCCACUGGAUUAAUAUUUGUAUAAUCUAGUUCAAAGUGAUGUUUUGAGUCCAGGACCGGGACAUUUGUUA [JR_ExcTryptoB_Sub004] | 558 nM |
| GAUAAUUACGUAGGAUAUCCAUAUCCGCGGUCUUGAUGGAUUUUUACGAUCCAGUGAUGUUGGAUUGGAGAAGGACGGAGGCAAA [Arquedis] | 435 nM |
| CGCCAGUGAUGUUGGCGCAGGUUGCGGGAAGGAGCGCGCGUAAGCGCAGGUAGGUCGCCUGCAGGCCAGUGAUGUUGGCAAUCUG [Same State Arginine A GF 30] | 111 nM |
| GUCUCAAAAGAGGCAAGCACUCACGAGGACAAGGAUAUCAUUUCAAUGAGAAGGUGUCCUCGUCCUCAGUGAUGUUGAGGAGUGC [Omei KL FMN A SS E 1] | 299 nM |
| CAUAGGAAACUAUGUAUCUCUCUGACUGAAGGAGCGCGUGAAAACGCAGGUAGGUCGCAGAAUUUAACAGAGAGUGAUGUUCUCU [Ex Arginine A K4 9] | 277 nM |

Same assay, conditions: Eterna round: R107; input ligand: tryptophan 2.4 mM

| Sequence | apparent KD of K4 kissing-loop reporter |
| --- | --- |
| UGGAGUUGACGAAAAGUCAACUCCUGAGAUACCAGUGACGAAGGUCACCCUUGGCAGCUCACUGCCAGUGAUGUUGGAAGAUAAA [whbob_SS_Theo_A_w47] | 174 nM |
| GGAUCCUAGGCGGCCGCCACUCCAUCGUACCGAAAGGUAUGAUACCGAGUGAUGUUCGGUUGGAGGAGGACCGGGCCUAGGAUCC [#2 Exclusion - Tryptophan B Attempt #3 (HarryS)] | 112 nM |
| GCCGUACGCAUGGAUACCAGCACACAACGAAGUGAUGUUUCGUGCGUAGAUUUGUGCUACUGCCCUUGGCAGCCAUGCGUACGGC | 78.6 nM |
| UGAUAGGACAGAAGGAGCGGGAGUGAUGUUCCCAAAAGAAUAAGGUGUCAAAAGACACCCUUCCAGGUAGGUCGCUGUCCUAUCU | 87.4 nM |
| UUAGGGAUCUCGGCCGCCACUCGUGGGAAAUGGGCCUCAGGGAUAUAGUGAUGUUAUGUAAAGAAGAGGACCGGGAGAAGGAAGG [ExTryptoB.Di] | 155 nM |
| AAAGCUUGGAUGGACGUUAGCGACGGAGAAGGAGCGCACGGAAGUGCAGGUAGGUCGCUCCGAGUGAUGUUCGUGAGUGAUUGCU [Ditienti] | 301 nM |
| UUACUACCCAGUGAUGUUGGGUAGCGGCGGCGAGGACCGGUACGGCCGCCACUCGGCGCACGGGAGUGAUGUUCCUGGGAAUAUA [Same State Tryptophan A GF 10] | 254 nM |
| UGGACGUUAUACAAAUAGUAUAACUGGGAUACCAGUGACGAAAGUCACCCUUGGCAGCUCAACUGCCAGUGAUGUUGGUAGUCCA [Astros-Eli-mod#4] | 145 nM |
| UAUAUAGUGACGGCCGCCACUAUUGUGAUGUUGUUGUUAGAGUGAUGUUUUGUUGUUUGAUUUUGUAGGACCGGGUUAUAUGUUA [ffdfzmullin] | 562 nM |
| GCGCAUGUUAAAGGAUAUAGCAGGUGAUACAAGAAAGUGAGUGAUGUUUAUGUAGAUGAUGAUAUGUUAGAAGGUUAACAAAAGC [abcdefghijklmn] | 434 nM |
| AGAGUUAUAUGAGGAUAUGAGAUAGUUAAUGAGUGAGUUAUAGUGUAGUUUGUUUAGUGAUGUUAUUUAGAAGGCGUGAGUGAUG [ljjlumullin] | 88.8 nM |
| GUAUCGCUAGGAGGAUAUUUCAAAUAACAAAUAAAUGGUUAUACGGAGUGAUGUUCCGAUUUACGGAAAGAAGGCCUAGUGAUAC [FMN B 4] | 203 nM |
| UGUGAUGUGUAGUGUUAUGUUUUGAGGGAUACCAGAGUCUUUUUAUUCCCUUGGCAGCUUGAGUGAUGUUUGAUGCUGUUGUUGU [dvccmullin] | 339 nM |
| UUUAUAUUGUCGGCCGCCACUGGAUUAAUAUUUGUAUAAUCUAGUUCAAAGUGAUGUUUUGAGUCCAGGACCGGGACAUUUGUUA [JR_ExcTryptoB_Sub004] | 445 nM |
| GAUAAUUACGUAGGAUAUCCAUAUCCGCGGUCUUGAUGGAUUUUUACGAUCCAGUGAUGUUGGAUUGGAGAAGGACGGAGGCAAA [Arquedis] | 362 nM |
| CGCCAGUGAUGUUGGCGCAGGUUGCGGGAAGGAGCGCGCGUAAGCGCAGGUAGGUCGCCUGCAGGCCAGUGAUGUUGGCAAUCUG [Same State Arginine A GF 30] | 116 nM |
| GUCUCAAAAGAGGCAAGCACUCACGAGGACAAGGAUAUCAUUUCAAUGAGAAGGUGUCCUCGUCCUCAGUGAUGUUGAGGAGUGC [Omei KL FMN A SS E 1] | 233 nM |
| CAUAGGAAACUAUGUAUCUCUCUGACUGAAGGAGCGCGUGAAAACGCAGGUAGGUCGCAGAAUUUAACAGAGAGUGAUGUUCUCU [Ex Arginine A K4 9] | 258 nM |
